The text below walks through data of patent US20220389089A1 (SURFACE ONCOLOGY, published 2022).

This assay deals with T1, IL-27RA on NCI-H2228 lung cancer cells (human, UniProt Q6UWB1 33-636).
T1 sequence: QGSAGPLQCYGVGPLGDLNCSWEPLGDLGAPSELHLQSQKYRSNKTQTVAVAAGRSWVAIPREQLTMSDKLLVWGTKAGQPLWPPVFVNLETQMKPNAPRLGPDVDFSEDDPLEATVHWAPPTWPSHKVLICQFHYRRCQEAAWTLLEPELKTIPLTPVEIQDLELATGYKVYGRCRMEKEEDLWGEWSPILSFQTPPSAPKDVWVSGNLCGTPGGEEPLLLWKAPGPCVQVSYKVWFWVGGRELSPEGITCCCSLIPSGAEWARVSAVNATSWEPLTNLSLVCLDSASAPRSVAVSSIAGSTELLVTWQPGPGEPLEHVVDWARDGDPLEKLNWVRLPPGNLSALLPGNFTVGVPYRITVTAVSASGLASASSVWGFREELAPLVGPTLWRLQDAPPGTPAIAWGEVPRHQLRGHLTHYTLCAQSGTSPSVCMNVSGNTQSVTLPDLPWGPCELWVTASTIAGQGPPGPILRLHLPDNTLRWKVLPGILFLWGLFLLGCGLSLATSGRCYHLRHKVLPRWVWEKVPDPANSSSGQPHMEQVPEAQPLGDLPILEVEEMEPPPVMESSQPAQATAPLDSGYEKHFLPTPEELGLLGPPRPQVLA
The experiment in a line: cell-based or functional assay.

B1: recombinant human IL-27 (ligand)
chain 1: RKGPPAALTLPRVQCRASRYPIAVDCSWTLPPAPNSTSPVSFIATYRLGMAARGHSWPCLQQTPTSTSCTITDVQLFSMAPYVLNVTAVHPWGSSSSFVPFITEHIIKPDPPEGVRLSPLAERQLQVQWEPPGSWPFPEIFSLKYWIRYKRQGAARFHRVGPIEATSFILRAVRPRARYYVQVAAQDLTDYGELSDWSLPATATMSLGK
chain 2: FPRPPGRPQLSLQELRREFTVSLHLARKLLSEVRGQAHRFAESHLPGVNLYLLPLGEQLPDVSLTFQAWRRLSDPERLCFISTTLQPFHALLGGLGTQGRWTNMERMQLWAMRLDLRDLQRHLRFQVLAAGFNLPEEEEEEEEEEEEERKGLLPGALGSALQGPAQVSWPQLLSTYRLLHSLELVLSRAVRELLLLSKAGHSVWPLGFPTLSPQP
With B1, the “EC50 of STAT1 phosphorylation (pSTAT1-PE GeoMean, flow cytometry) in NCI-H2228 lung cancer cells cultured with graded concentrations of IL-27” value worked out at 5.3 ng/mL.
